From patent US20100129369A1 (Eli Lilly, published 2010)

Experiments:
RON-ECD-Fc [1] = molecular target: T1, RON-ECD-Fc (human, UniProt Q04912 25-957); assay: ELISA, coated ECD-Fc, antibody 100000.000 ng/mL
T1 construct: extracellular domain; Bought reagent; not shown: Fc part of the bought fusion
T1 sequence (looked up): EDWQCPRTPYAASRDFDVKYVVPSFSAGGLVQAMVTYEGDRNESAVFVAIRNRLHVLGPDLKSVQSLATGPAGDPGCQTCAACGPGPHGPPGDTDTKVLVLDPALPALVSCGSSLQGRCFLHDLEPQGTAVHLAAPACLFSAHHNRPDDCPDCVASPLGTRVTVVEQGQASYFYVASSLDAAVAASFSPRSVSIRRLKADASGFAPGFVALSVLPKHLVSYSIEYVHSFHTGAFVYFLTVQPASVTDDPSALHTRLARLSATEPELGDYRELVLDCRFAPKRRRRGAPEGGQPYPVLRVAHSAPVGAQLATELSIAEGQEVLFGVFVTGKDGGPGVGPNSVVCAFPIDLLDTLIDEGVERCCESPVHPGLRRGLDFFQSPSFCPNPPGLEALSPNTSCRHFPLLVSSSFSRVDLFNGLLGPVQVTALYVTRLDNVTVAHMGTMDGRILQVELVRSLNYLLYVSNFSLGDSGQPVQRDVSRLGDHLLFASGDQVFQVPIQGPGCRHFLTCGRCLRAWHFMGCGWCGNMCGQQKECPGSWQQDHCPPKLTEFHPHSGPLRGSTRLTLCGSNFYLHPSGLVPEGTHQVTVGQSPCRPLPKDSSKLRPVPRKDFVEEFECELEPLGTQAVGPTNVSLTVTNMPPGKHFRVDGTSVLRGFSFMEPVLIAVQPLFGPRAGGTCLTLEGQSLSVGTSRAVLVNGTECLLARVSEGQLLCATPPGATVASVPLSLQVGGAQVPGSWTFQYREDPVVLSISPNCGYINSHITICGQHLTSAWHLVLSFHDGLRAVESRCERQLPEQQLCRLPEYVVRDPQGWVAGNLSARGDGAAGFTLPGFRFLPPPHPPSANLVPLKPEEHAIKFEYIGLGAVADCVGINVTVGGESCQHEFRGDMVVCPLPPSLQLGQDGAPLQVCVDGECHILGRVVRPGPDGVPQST
Method: (§1) Wells of 96-well EIA/RIA high binding plates (Costar, #2592) are coated with 100 μL of 1 μg/mL human c-Met extracellular domain (ECD)-Fc-Flis fusion (SEQ ID NO:72), RON-ECD-Fc (R&D Systems, #1947-MS), or PlexinA2-ECD-Fc (Abnova, Taipei, Taiwan #H00005362-P01) in coating buffer (BioFX Labs, # COAT-1000-01) overnight at 4° C. […] After the plates are washed, 100 μL/well of substrate solution (BioFx, #TMBW-1000-01) are added and the plates are incubated for 10 min. at room temperature. 100 μL/well of stop solution (BioFx, # LSTP-1000-01) are added to stop the reaction. The colorimetric signals are developed and read at 450 nm using a SpectraMax 190 plate reader (Molecular Devices, Sunnyvale, Calif.). c-Met antibody binding to c-Met, RON and PlexinA2 ECDs is proportional to color signal production.

Human c-Met-Flis-Fc ECD [2] = molecular target: T2, Human c-Met-Flis-Fc ECD (human); assay: ELISA, coated ECD-Fc, antibody 100000.000 ng/mL
T2 construct: also called human c-Met extracellular domain (ECD)-Fc-Flis fusion; Human cMet-ECD-Fc-Flis
Method: as §1

PlexinA2-ECD-Fc [3] = molecular target: T3, PlexinA2-ECD-Fc (human, UniProt O75051 35-1237); assay: ELISA, coated ECD-Fc, antibody 100000.000 ng/mL
T3 construct: extracellular domain; Bought reagent
T3 sequence (looked up): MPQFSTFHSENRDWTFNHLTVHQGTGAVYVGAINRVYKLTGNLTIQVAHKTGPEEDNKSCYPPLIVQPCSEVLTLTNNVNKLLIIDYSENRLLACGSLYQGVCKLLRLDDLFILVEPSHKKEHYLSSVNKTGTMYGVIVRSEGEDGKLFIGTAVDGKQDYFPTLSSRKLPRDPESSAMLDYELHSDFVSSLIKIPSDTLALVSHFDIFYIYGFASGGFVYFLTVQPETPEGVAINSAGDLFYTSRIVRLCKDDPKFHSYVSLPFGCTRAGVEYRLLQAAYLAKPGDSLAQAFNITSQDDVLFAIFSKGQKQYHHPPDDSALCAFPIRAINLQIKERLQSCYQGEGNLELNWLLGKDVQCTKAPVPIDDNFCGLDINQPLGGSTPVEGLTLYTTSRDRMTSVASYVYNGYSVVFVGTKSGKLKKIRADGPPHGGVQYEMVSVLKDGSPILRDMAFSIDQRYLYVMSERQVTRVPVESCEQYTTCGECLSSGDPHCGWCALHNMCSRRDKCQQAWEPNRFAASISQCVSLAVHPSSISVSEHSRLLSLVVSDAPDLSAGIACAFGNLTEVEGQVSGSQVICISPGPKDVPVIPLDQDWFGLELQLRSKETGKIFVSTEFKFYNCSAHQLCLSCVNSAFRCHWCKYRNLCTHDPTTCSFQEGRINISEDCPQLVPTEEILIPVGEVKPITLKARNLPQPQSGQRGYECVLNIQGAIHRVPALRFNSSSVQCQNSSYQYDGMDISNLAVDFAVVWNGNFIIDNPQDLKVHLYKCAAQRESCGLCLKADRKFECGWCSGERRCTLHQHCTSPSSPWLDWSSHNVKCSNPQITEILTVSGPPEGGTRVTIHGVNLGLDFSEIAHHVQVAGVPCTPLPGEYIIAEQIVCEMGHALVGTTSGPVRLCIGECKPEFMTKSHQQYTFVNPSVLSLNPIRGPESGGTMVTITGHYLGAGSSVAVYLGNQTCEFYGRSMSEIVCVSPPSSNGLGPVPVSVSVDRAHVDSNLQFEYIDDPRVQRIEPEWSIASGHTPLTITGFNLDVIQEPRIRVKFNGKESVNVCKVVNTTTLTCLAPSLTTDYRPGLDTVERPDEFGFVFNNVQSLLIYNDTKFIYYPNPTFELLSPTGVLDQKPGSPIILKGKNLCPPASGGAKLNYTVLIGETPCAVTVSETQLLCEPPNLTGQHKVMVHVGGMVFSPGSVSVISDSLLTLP
Method: as §1

RON-ECD-Fc [4] = molecular target: T1, RON-ECD-Fc; assay: ELISA, coated ECD-Fc, antibody 12.860 ng/mL
Method: as §1

Human c-Met-Flis-Fc ECD [5] = molecular target: T2, Human c-Met-Flis-Fc ECD; assay: ELISA, coated ECD-Fc, antibody 12.860 ng/mL
Method: as §1

PlexinA2-ECD-Fc [6] = molecular target: T3, PlexinA2-ECD-Fc; assay: ELISA, coated ECD-Fc, antibody 12.860 ng/mL
Method: as §1

T2 sequence (chain, as listed by the source limits assumed): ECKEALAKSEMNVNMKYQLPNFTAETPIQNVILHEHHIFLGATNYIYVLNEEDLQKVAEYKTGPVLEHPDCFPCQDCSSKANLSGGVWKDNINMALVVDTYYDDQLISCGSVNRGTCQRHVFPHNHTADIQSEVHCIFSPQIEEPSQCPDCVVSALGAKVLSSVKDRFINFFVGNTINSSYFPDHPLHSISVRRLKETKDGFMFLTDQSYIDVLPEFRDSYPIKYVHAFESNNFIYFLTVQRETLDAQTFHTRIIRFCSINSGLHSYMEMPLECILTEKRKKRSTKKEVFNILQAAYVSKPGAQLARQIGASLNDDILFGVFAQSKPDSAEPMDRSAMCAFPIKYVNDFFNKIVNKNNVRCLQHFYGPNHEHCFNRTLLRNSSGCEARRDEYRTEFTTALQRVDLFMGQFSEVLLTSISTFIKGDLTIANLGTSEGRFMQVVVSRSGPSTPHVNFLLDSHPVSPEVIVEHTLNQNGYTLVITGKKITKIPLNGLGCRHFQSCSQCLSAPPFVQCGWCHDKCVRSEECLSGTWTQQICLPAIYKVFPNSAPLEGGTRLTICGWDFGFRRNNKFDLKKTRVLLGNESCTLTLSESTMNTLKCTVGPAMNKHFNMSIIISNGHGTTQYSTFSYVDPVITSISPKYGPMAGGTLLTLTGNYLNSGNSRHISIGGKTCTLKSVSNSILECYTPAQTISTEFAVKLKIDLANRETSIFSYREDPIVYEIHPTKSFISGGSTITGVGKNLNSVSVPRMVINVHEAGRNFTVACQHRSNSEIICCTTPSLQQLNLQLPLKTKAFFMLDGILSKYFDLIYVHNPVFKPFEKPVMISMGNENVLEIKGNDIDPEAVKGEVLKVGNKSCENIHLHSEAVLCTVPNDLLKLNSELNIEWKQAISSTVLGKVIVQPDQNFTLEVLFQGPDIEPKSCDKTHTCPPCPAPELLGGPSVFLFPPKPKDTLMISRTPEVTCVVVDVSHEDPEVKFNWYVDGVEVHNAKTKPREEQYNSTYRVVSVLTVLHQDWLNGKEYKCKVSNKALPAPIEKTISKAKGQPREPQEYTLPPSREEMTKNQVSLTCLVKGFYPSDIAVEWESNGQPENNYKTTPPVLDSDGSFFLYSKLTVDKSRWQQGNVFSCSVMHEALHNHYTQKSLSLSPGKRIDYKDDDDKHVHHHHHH

Average A450 nm (RON-ECD-Fc [1]): 0.17 A450 nm
Average A450 nm (Human c-Met-Flis-Fc ECD [2]): 4 A450 nm
Average A450 nm (PlexinA2-ECD-Fc [3]): 0.171 A450 nm
Average A450 nm (RON-ECD-Fc [4]): 0.087 A450 nm
Average A450 nm (Human c-Met-Flis-Fc ECD [5]): 4 A450 nm
Average A450 nm (PlexinA2-ECD-Fc [6]): 0.085 A450 nm
B1: C8-6 (antibody, human IgG2, kappa, V domains shown)
VH: QVQLVQSGAEVKKPGASVKVSCKASGYTFTDYYMHWVRQAPGQGLEWMGRVNPNRGGTTYNQKFEGRVTMTTDTSTSTAYMELRSLRSDDTAVYYCARTNWLDYWGQGTTVTVSS
VL: DIQMTQSPSSLSASVGDRVTITCSVSSSVSSIYLHWYQQKPGKAPKLLIYSTSNLASGVPSRFSGSGSGTDFTLTISSLQPEDFATYYCIQYSGYPLTFGGGTKVEIKR
notes: Called IgG4, kappa; also called Mab C8-6
